The data set concerns ATP. The data set is described as follows: switch fluorescence ratio, 500 uM ATP over buffer (Cy3 cluster intensity, sum of 5 cycles each) (fold (ratio)); higher = stronger signal-on switching upon ATP binding; sequences stand for … in TCGTCGGCAGCGTCAGATGTGTATAAGAGACAGTTTTTTTTTTTTTTTTTTTTTTTTT…TC. To be noted: aptamer strand: ATP DNA aptamer (quencher-CACCTGGGGGAGTATTGCGGAGGAAGG + anchor), 100 nM annealed; ATP concentration: 500 uM. The gist of the method: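 Per cluster, summed Cy3 intensity from the target cycles was divided by that from the buffer cycles to give the fluorescence ratio, then averaged per switch-domain sequence. Clusters outside 100-1000 RFU were excluded. The Cy3-labelled switching-strand clusters, on a modified Illumina MiSeq flow-cell, were annealed to 100 nM quencher-labelled ATP aptamer and imaged in selection buffer, then after 15 min with 500 uM ATP at 22 °C, for five cycles with NaOH stripping and re-annealing between them.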

± gives the standard deviation of the averaged measurements.
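Also: ATP exposure 15 min at 22 °C before imaging.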

In the case of TTGCCTTTTT, the switch fluorescence ratio was determined as 0.998 ± 0.028.
The result for ATTGTGTCTT reads 0.99 ± 0.013; that for AATGGTGATT, 1.02 ± 0.046; that for AAGTGTTGGC, 1.014 ± 0.01.
The result for GTTGAATCTG reads 1.26 ± 0.36.
For the sequence GGCTGAAAAA, the switch fluorescence ratio worked out at 0.915 ± 0.056.
The result for TTATGAGCGG reads 1.02 ± 0.048.
Take ACTTTATCTT: the switch fluorescence ratio worked out at 1.063 ± 0.01.
The result for TTAACACTCC reads 1.2 ± 0.02; that for ATGTAGTTGT, 0.979 ± 0.041; that for TTTTGGTTTA, 1 ± 0.011.
The same measure for CGCGCTGCTG: 1.03 ± 0.029.
The result for TGTGGTGGAG reads 0.9617 ± 0.0071.
As for AATTGCATAA, the switch fluorescence ratio came to 0.996 ± 0.04.
Take TAAGCCTTG: the switch fluorescence ratio was found to be 0.996 ± 0.006.
As to ATCTTAATG, the switch fluorescence ratio came to 1.01 ± 0.05.
The result for TTAAGCCAGG reads 1.16 ± 0.14; that for TGTGGGCTGG, 1.02 ± 0.012; that for AAGCTTATGC, 1.04 ± 0.085.
The result for ACGAATTCTG reads 1.02 ± 0.042; that for CTAGTAGTGT, 1.01 ± 0.022.
The result for TTTCGACGTT reads 0.99 ± 0.011; that for CATTTTGGGC, 0.992 ± 0.041; that for ATCGAGGGGT, 0.955 ± 0.037.
As to TCATTCAAGT, the switch fluorescence ratio was 1.04 ± 0.011.
The result for CTCAGTTTTA reads 1.002 ± 0.0083; that for CCGTTAGTGG, 1.04 ± 0.042.
The same measure for ATAAGTTGAT: 1.01 ± 0.03; for ATAGGGTTTC: 0.99 ± 0.01; for ATTTAAGCTT: 1.07 ± 0.048.
The result for CGTGTATATA reads 1.018 ± 0.0041; that for GGGTGGATTG, 0.983 ± 0.039.
For AAAGTTTCCG, the switch fluorescence ratio was found to be 1 ± 0.0018.
The same measure for GAGGATAGGT: 0.98 ± 0.011; for GGTTTTCTGT: 0.997 ± 0.016.
The result for GTAATTGGGT reads 0.986 ± 0.015; that for TTTAATTTAT, 1.09 ± 0.12; that for GTTATTTACG, 1.02 ± 0.033.
The result for CGGATGCGTT reads 0.981 ± 0.024; that for TTCAAGGGGG, 1 ± 0.018.
As for TTGTTCATAC, the switch fluorescence ratio worked out at 1.27 ± 0.37.
The same measure for AGCTAGCGTT: 0.997 ± 0.024; for TTAGCGGCTG: 0.9585 ± 0.0026.
The result for AATTGTAGGC reads 0.976 ± 0.036.
The same measure for GAGAGGTTCG: 0.962 ± 0.012; for TGGGTTTGGC: 1.02 ± 0.023.
On to GCGTAAAACG, for which the switch fluorescence ratio came to 0.977 ± 0.04.
Turning to CAGGTATTAC, the switch fluorescence ratio is 1.11 ± 0.026.
The result for GCGGTAGGG reads 1.02 ± 0.0055.
In the case of AACCCATGCT, the switch fluorescence ratio was determined as 1.05 ± 0.064.
Consider CCGTATAAGG, for which the switch fluorescence ratio came to 1.023 ± 0.0038.
With AGTTGGGATC, the switch fluorescence ratio was 1.036 ± 0.008.
The result for GGATTTTTAT reads 0.999 ± 0.028.
The result for TTTAGAGATG reads 1.24 ± 0.41.
For CACGAATGCT, the switch fluorescence ratio was found to be 1.04 ± 0.019.
The same measure for ATTTCAGCTG: 0.982 ± 0.027; for GATTGTACGA: 1.01 ± 0.031; for AATGCGTGGC: 1.0436 ± 0.00057.
The same measure for ACTATGCGGG: 0.982 ± 0.017; for TGAATTATTT: 1.02 ± 0.035; for GCGTCAGGAT: 1.0442 ± 0.00058.
The same measure for GGCCCTCTGA: 1.05 ± 0.018.
CGGGTGTAAG: the switch fluorescence ratio amounted to 1.01 ± 0.033.
The result for ACGTGTAGGA reads 1.0005 ± 0.00069; that for GTGGGTTTGC, 1.03 ± 0.03; that for AGTTGGCTTT, 1.018 ± 0.008.
The result for GGGGTCGGCT reads 0.974 ± 0.077.
